# Laboratory results from patent US20260022144A1, “ANALGESIC POLYPEPTIDE” (Shanghai Puyou Biomedical Co., Ltd., priority 2022, published 2026).
# B1: SEQ ID NO: 29: exemplary polypeptide of the present disclosure; artificial polypeptide of formula (I) X-Y (protein)
# chain: SEKKQPVDLGLLEEDDEFEEFPAEDWAGLDEDEDAHVWEDNWDDDNVEDDFSNQLRATVLLMILVAETPYGAYVLHQKGRMASAFLAA
# Experiments:
# SNL pain model in rats = assay: SNL (spinal nerve ligation) pain model in rats, mechanical allodynia test; assay type: in vivo, rat; conditions: SD rats, 1 h after administration
# Experimental: A summary of the method for inducing pain model in rats by means of spinal nerve ligation is provided hereinafter. Briefly, male SD rats were anesthetized with Zoletil R 50+xylazine hydrochloride (20 mg/kg+8 mg/kg, intraperitoneal injection). The surgical areas on the waist regions of the animals were shaved, and the skin was disinfected with iodophor and 70% v/v ethanol for three times. The left spinal nerves L5 and L6 of the animals were isolated, tightly ligated with 6-0 silk suture, and the wounds were sutured.
# On the 11th day post operation, the animals were acclimated to the experimental environment, 15 minutes/day, for 3 consecutive days.
# Briefly, after SNL modeling, 24 animals were randomly divided into 3 groups (Groups 2, 3 and 4, N=8/group). Group 1 (a Sham group, for which the 10 animals received essentially the same operation procedure as other groups but their left spinal nerves L5 and L6 were neither isolated nor ligated) was used as the control group. The test articles were administrated to the animals according to the protocol shown in Table 5, and mechanical allodynia tests were respectively performed 1h after administration according to the method as recited in Example 1.
# Briefly, after SNL modeling, 30 animals were randomly divided into 3 groups (Group 1, N=6/group; Groups 2 and 3, N=12/group). Various polypeptides of the present disclosure were administered to the animals from Groups 2 and 3, and the animals were subjected to mechanical allodynia tests 1 h after administration according to the method as recited in Example 1.
# [1] = tested on: chemotherapy-induced peripheral neuropathy model induced by cisplatin in mice; assay: Cancer pain associated with CIPN model induced by cisplatin in mice, mechanical allodynia test; assay type: in vivo, mouse; conditions: C57BL/6 mice; for pain thresholds (50% PWT) of treatment groups vs model group, preventive effect: 15 mg/kg i.p. qd or bid in parallel with cisplatin
# Experimental: The experiments in this Example were divided into two parts. In the first part (Part I), the administration of SEQ ID NO: 29 was performed in parallel with modeling to explore the preventive effect of the polypeptide of the present disclosure on cancer pain associated with CIPN, in particular CIPN induced by cisplatin. In the second part (Part II), after elution of SEQ ID NO: 29 from the mice's bodies, mechanical allodynia tests were performed on the mice to confirm that the animals still had the cancer pain associated with CIPN, and to explore the therapeutic effect of the polypeptide of the present disclosure on cancer pain associated with CIPN after modeling.
# 44 male C57BL/6 mice weighting 20 to 25 g were randomly divided into 4 groups, with 8 mice in the control group (Group 1, administered with vehicle (normal saline)), 12 mice in the model group (Group 2, administered with vehicle (normal saline) and cisplatin (2.3 mg/kg, i.p., qd)), 12 mice in the treatment group (qd) (Group 3, administered with SEQ ID NO: 29 (15 mg/kg, i.p., qd) and cisplatin (2.3 mg/kg, i.p., qd)) and 12 mice in the treatment group (bid) (Group 4, administered with SEQ ID NO: 29 (15 mg/kg, i.p., bid) and cisplatin (2.3 mg/kg, i.p., qd)).
# Administration of SEQ ID NO: 29 was performed on scheduled dates. Briefly, SEQ ID NO: 29 was administered qd or bid by intraperitoneal injection on each day from Day 1 to Day 11, followed by a washing-out period ranging from Day 12 to Day 23. Afterwards, the administration of SEQ ID NO: 29 was resumed on the basis of the same regimen as above, lasting from Day 24 to Day 30.
# The mice were subjected to mechanical allodynia tests 0 h before administration and 2 h after the first administration of the test articles (normal saline or SEQ ID NO: 29) according to the method as recited in Example 1 on Day 6, Day 10, Day 23 and Day 30, respectively.
# [2] = tested on: eye pain (ocular neuropathic pain) model induced by benzalkonium chloride in mice; assay: Eye pain model induced by benzalkonium chloride in mice, scratching behavior test; assay type: in vivo, mouse; conditions: eye drops TID, 30 μg/ml, 10 μL (0.3 μg/eye/each time), after 2 days of treatment, 2M NaCl challenge, vs model group
# Experimental: C57BL/6JNifdc mice were used in the experiment. Briefly, each of the mice was fixed with one hand, with one eye prop opened with the other hand (and fixed with another lab technician). The modeling drug, i.e., 0.1% benzalkonium chloride was dripped into one eye (twice a day (9:00, 17:00), 10 μL each time) and maintained for 30 seconds. The operation was repeated for six days.
# In order to evaluate the pathological changes at the front of the mice's eyes, slit lamp photos were taken on the third day since the beginning of modeling. According to the photographic results, the mice's eyes were scored from three viewing angles, including corneal opacity (0: clear, 1: visible opacity, 2: difficult to find, 3: pupil invisible), conjunctival edema (0: absent, 1: slight edema, 2: edema, 3: severe edema) and congestion (0: absent, 1: slight congestion, 2: congestion, 3: severe congestion, 4: hemorrhage), to access and evaluate the damages at the front of the mice's eyes. The mice were then randomized into groups. […]
# Scratching behavior test: The eyes were administered for two consecutive days. […] After acting for 5 seconds, the mice were released back into the cage, and the numbers of wipes over the eyes within 30 seconds were counted.
molecule,measurement,setting,value
B1,analgetic effect (50% PWT),SNL pain model in rats; i.v. single administration (SEQ ID NO: 29 30 and 60 mg/kg; SEQ ID NO: 90 and 93 60 mg/kg),certain analgetic effect
same,analgetic effect of 60 mg/kg compared with 30 mg/kg (50% PWT),SNL pain model in rats; i.v. single administration,much higher than that produced from the dose of 30 mg SEQ ID NO: 29/kg
same,"pain thresholds (50% PWT) of treatment groups, therapeutic effect","[1]; 15 mg/kg i.p. qd or bid Day 24 to Day 30, Day 30 vs Day 23",significantly increased
same,"pain thresholds (50% PWT) of treatment groups vs model group, preventive effect",[1]; Day 6,significantly higher than those of the mice from the model group
same,"pain thresholds (50% PWT) of treatment groups vs model group, preventive effect",[1]; Day 10,significantly higher than those of the mice from the model group
same,levels of pain thresholds under different dosing frequency,"[1]; 15 mg/kg i.p., qd vs bid",dose-related
same,numbers of wipes over the eyes within 30 seconds,[2],significantly decreased numbers of wiping over the eyes (P<0.01)
